Measured values reported in PMC9938897, “CvkR is a MerR-type transcriptional repressor of class 2 type V-K CRISPR-associated transposase systems”.
Substitutions are numbered along the chain they refer to.

B1: Pwt (dsDNA)
DNA 1: TTGTATAACATTATGTGTTTTGTATGGTATTTT
DNA 2: AAAATACCATACAAAACACATAATGTTATACAA
B2: P15-5 (dsDNA)
DNA 1: B1 DNA 1 with T12A
DNA 2: B1 DNA 2 with A22T
B3: PtnsBcenter (dsDNA)
DNA 1: TTTAGAATAACATTATGTATTTATAAATTACCTTTGTTTCA
DNA 2: TGAAACAAAGGTAATTTATAAATACATAATGTTATTCTAAA
B4: Pcas12k (dsDNA)
DNA 1: AAGAAACATCCTATAGAAGCATCTTCTAAAACACATTAGTGCTTTGTATAACATTATGTGTTTTGTATGGTATTTTATTTTTA
DNA 2: TAAAAATAAAATACCATACAAAACACATAATGTTATACAAAGCACTAATGTGTTTTAGAAGATGCTTCTATAGGATGTTTCTT
B5: Pcas12kcenter (dsDNA)
DNA 1: CTAAAACACATTAGTGCTTTGTATAACATTATGTGTTTTGTAT
DNA 2: ATACAAAACACATAATGTTATACAAAGCACTAATGTGTTTTAG
B6: Ptracr (dsDNA)
DNA 1: TTAGCCCTCTATGCTTATAGTCTCCGCCTAGCTAGGCGAAGTTGACAAACATCTGAACCTTGAAAATATAATATGTAATA
DNA 2: TATTACATATTATATTTTCAAGGTTCAGATGTTTGTCAACTTCGCCTAGCTAGGCGGAGACTATAAGCATAGAGGGCTAA
B7: P45 (dsDNA)
DNA 1: TAAGAAACATCCTATAGAAGCATCTTCTAAAACACATTAGTGCTTT
DNA 2: AAAGCACTAATGTGTTTTAGAAGATGCTTCTATAGGATGTTTCTTA
B8: P43 (dsDNA)
DNA 1: TGCTTTGTATAACATTATGTGTTTTGTATGGTATTTTATTTTT
DNA 2: AAAAATAAAATACCATACAAAACACATAATGTTATACAAAGCA
B9: PtnsB (dsDNA)
DNA 1: AAAGGTTTTGTATATTTTCATAATGACAAATTGACTGTCGTTTTCTCCACGTTTAGAATAACATTATGTATTTATAAATT
DNA 2: AATTTATAAATACATAATGTTATTCTAAACGTGGAGAAAACGACAGTCAATTTGTCATTATGAAAATATACAAAACCTTT
B10: PpsbAI (dsDNA)
DNA 1: GGAATAATTAACATTAAGAATTATTAATTCATGGGTTTTTAGTCTAGTAAATTTGCGTGAATTCATGTAAATTTTATGAG
DNA 2: CTCATAAAATTTACATGAATTCACGCAAATTTACTAGACTAAAAACCCATGAATTAATAATTCTTAATGTTAATTATTCC

Assays:
CvkR (Alr3614) [1] = biological target: T1, CvkR (Alr3614) (Anabaena sp. PCC 7120, UniProt A0ACD6B984 19-168); assay: EMSA; EMSA: 10 mM Tris-HCl pH 8.0, 25 mM MgCl2, 50 mM NaCl, 1 mM DTT, 1 mM EDTA, 50 ug/mL poly(dI-dC), 0.01% NP-40, 10% glycerol, 2 nM probe, 25 C 30 min; footprinting: 50 mM Tris-HCl pH 8.0, 100 mM KCl, 2.5 mM MgCl2, 0.2 mM DTT, 10% glycerol, 2 ug salmon sperm DNA, RT; conditions: protein: recombinant; tags: 6xHis-SUMO removed by Ulp1 (BamHI site; possible vector residues at N-term); chain copies: 2; label: 5'-biotin; blunt
CvkR R42E = CvkR R42E (Anabaena sp. PCC 7120, UniProt A0ACD6B984 19-168, R60E); assay: as above; conditions: protein: recombinant; tags: 6xHis-SUMO removed by Ulp1; chain copies: 2; label: 5'-biotin; blunt
CvkRmut = CvkRmut (Anabaena sp. PCC 7120, UniProt A0ACD6B984 19-168, R37A;R38A;Q41A;K58A;R60A;N84A); assay: as above; conditions: protein: recombinant; tags: 6xHis-SUMO removed by Ulp1; chain copies: 2; label: 5'-biotin; blunt
CvkR (Alr3614) [2] = biological target: T1, CvkR (Alr3614); assay: EMSA; no effect of mutation; EMSA: 10 mM Tris-HCl pH 8.0, 25 mM MgCl2, 50 mM NaCl, 1 mM DTT, 1 mM EDTA, 50 ug/mL poly(dI-dC), 0.01% NP-40, 10% glycerol, 2 nM probe, 25 C 30 min; footprinting: 50 mM Tris-HCl pH 8.0, 100 mM KCl, 2.5 mM MgCl2, 0.2 mM DTT, 10% glycerol, 2 ug salmon sperm DNA, RT; conditions: protein: recombinant; tags: 6xHis-SUMO removed by Ulp1 (BamHI site; possible vector residues at N-term); chain copies: 2; label: 5'-biotin; blunt

T1 sequence (A0ACD6B984 entry or part of it): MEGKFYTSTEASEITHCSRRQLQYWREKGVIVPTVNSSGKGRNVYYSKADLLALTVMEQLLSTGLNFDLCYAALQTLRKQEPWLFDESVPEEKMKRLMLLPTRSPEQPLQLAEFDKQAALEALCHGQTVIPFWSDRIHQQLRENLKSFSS
Sequence of CvkR R42E (A0ACD6B984 entry or part of it R60E | R42E R42E): as the sequence (A0ACD6B984 entry or part of it) above, with R42E counted along it
Sequence of CvkRmut (A0ACD6B984 entry or part of it R37A;R38A;Q41A;K58A;R60A;N84A): as the sequence (A0ACD6B984 entry or part of it) above, with R19A, R20A, Q23A, K40A, R42A, N66A counted along it

Binder | binding result (CvkR (Alr3614) [1]) | further results
B1 | binds | binding result (CvkR R42E): no binding; binding result (CvkRmut): no binding
B2 | – | binding result (CvkR (Alr3614) [2]): binds
B3 | binds | –
B4 | binds | –
B5 | binds | –
B6 | no binding | –
B7 | no binding | –
B8 | binds | –
B9 | binds | –
B10 | no binding | –
